Results on four sequences are retold here after the supplement of paper PMC5998384.

Series [1] relates to HeLa Kyoto. In words: melting temperature (median over replicates), in situ; higher = more thermally stable.
In series [2] the test system is HeLa Kyoto. In words: thermal stability score vs G1/S (z-score of summed log2 fold changes over temperatures); higher = more thermally stable than in G1/S.
Series [3] relates to HeLa Kyoto. In words: solubility change mitosis vs G1/S (difference of NP-40 vs SDS log2 ratios) (log2 ratio difference); higher = more soluble in mitosis.
Series [4] relates to HeLa Kyoto. In words: solubility in G1/S (NP-40 vs SDS abundance) (log2 ratio); higher = more soluble. The settings on record: cell cycle stage: G1/S.
Where [5] appears, read: cell cycle stage: early G1 (4.5 h after nocodazole release).
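Throughout, for melting temperature (median over replicates), in situ: HeLa Kyoto cells synchronized by double thymidine or nocodazole block, proteins quantified by TMT10plex mass spectrometry, three independent biological replicates.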
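Throughout, for solubility change mitosis vs G1/S (difference of NP-40 vs SDS log2 ratios): synchronized HeLa Kyoto cells (double thymidine block for G1/S, nocodazole release for mitosis), protein amounts in NP-40 versus SDS lysates quantified by mass spectrometry, three biological replicates.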
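Throughout, for solubility in G1/S (NP-40 vs SDS abundance): HeLa Kyoto cells arrested at G1/S by double thymidine block, proteins quantified by TMT10plex mass spectrometry in mild NP-40 versus SDS extracts, three biological replicates.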
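Throughout, for thermal stability score vs G1/S (z-score of summed log2 fold changes over temperatures): synchronized HeLa Kyoto cells, proteins quantified by TMT10plex mass spectrometry, three biological replicates, mitosis taken 0.5 h after nocodazole release, G1/S directly after double thymidine block.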

Turning to “MRKGVLKDPEIADLFYKDDPEELFIGLHEIGHGSFGAVYFATNAHTSEVVAIKKMSYSGKQTHEKWQDILKEVKFLRQLKHPNTIEYKGCYLKEHTAWLVMEYCLGSASDLLEVHKKPLQEVEIAAITHGALHGLAYLHSHALIHRDIKAGNILLTEPGQVKLADFGSASMASPANSFVGTPYWMAPEVILAMDEGQYDGKVDIWSLGITCIELAERKPPLFNMNAMSALYHIAQNDSPTLQSNEWTDSFRRFVDYCLQKIPQERPTSAELLRHDFVRRDRPLRVLIDLIQRTKDAVRELDNLQYRKMKKILFQETRNGPLNESQEDEEDSEHGTSLNREMDSLGSNHSIPSMSVSTGSQSSSVNSMQEVMDESSSELVMMHDDESTINSSSSVVHKKDHVFIRDEAGHGDPRPEPRPTQSVQSQALHYRNRERFATIKSASLVTRQIHEHEQENELREQMSGYKRMRRQHQKQLIALENKLKAEMDEHRLKLQKEVETHANNSSIELEKLAKKQVAIIEKEAKVAAADEKKFQQQILAQQKKDLTTFLESQKKQYKICKEKIKEEMNEDHSTPKKEKQERISKHKENLQHTQAEEEAHLLTQQRLYYDKNCRFFKRKIMIKRHEVEQQNIREELNKKRTQKEMEHAMLIRHDESTRELEYRQLHTLQKLRMDLIRLQHQTELENQLEYNKRRERELHRKHVMELRQQPKNLKAMEMQIKKQFQDTCKVQTKQYKALKNHQLEVTPKNEHKTILKTLKDEQTRKLAILAEQYEQSINEMMASQALRLDEAQEAECQALRLQLQQEMELLNAYQSKIKMQTEAQHERELQKLEQRVSLRRAHLEQKIEEELAALQKERSERIKNLLERQEREIETFDMESLRMGFGNLVTLDFPKEDYR [TAOK3]”, the melting temperature came out at 50.9 °C in series [1] (cell cycle stage: G1/S) and 50.5 °C in series [1] (cell cycle stage: mitosis). The thermal stability score was -0.159 in series [2] (setting [5]) and -0.329 in series [2] (cell cycle stage: mitosis). In addition, the “solubility change mitosis (log2)” value in series [3] is -0.0814. For the same sequence, the “solubility in G1/S (log2)” value in series [4] is -0.118.

Regarding “MRKRTEPVALEHERCAAAGSSSSGSAAAALDADCRLKQNLRLTGPAAAEPRCAADAGMKRALGRRKGVWLRLRKILFCVLGLYIAIPFLIKLCPGIQAKLIFLNFVRVPYFIDLKKPQDQGLNHTCNYYLQPEEDVTIGVWHTVPAVWWKNAQGKDQMWYEDALASSHPIILYLHGNAGTRGGDHRVELYKVLSSLGYHVVTFDYRGWGDSVGTPSERGMTYDALHVFDWIKARSGDNPVYIWGHSLGTGVATNLVRRLCERETPPDALILESPFTNIREEAKSHPFSVIYRYFPGFDWFFLDPITSSGIKFANDENVKHISCPLLILHAEDDPVVPFQLGRKLYSIAAPARSFRDFKVQFVPFHSDLGYRHKYIYKSPELPRILREFLGKSEPEHQH [ABHD12]”, the melting temperature in series [1] (cell cycle stage: G1/S) turned out to be 53 °C; in series [1] (cell cycle stage: mitosis), 54.9 °C. The figures for the thermal stability score in series [2] (setting [5]) and in series [2] (cell cycle stage: mitosis) were 0.18 and -0.815, respectively. The “solubility change mitosis (log2)” value in series [3] is 0.0278. The “solubility in G1/S (log2)” value in series [4] amounted to 0.0996.

Take “MRLFVSDGVPGCLPVLAAAGRARGRAEVLISTVGPEDCVVPFLTRPKVPVLQLDSGNYLFSTSAICRYFFLLSGWEQDDLTNQWLEWEATELQPALSAALYYLVVQGKKGEDVLGSVRRALTHIDHSLSRQNCPFLAGETESLADIVLWGALYPLLQDPAYLPEELSALHSWFQTLSTQEPCQRAAETVLKQQGVLALRPYLQKQPQPSPAEGRAVTNEPEEEELATLSEEEIAMAVTAWEKGLESLPPLRPQQNPVLPVAGERNVLITSALPYVNNVPHLGNIIGCVLSADVFARYSRLRQWNTLYLCGTDEYGTATETKALEEGLTPQEICDKYHIIHADIYRWFNISFDIFGRTTTPQQTKITQDIFQQLLKRGFVLQDTVEQLRCEHCARFLADRFVEGVCPFCGYEEARGDQCDKCGKLINAVELKKPQCKVCRSCPVVQSSQHLFLDLPKLEKRLEEWLGRTLPGSDWTPNAQFITRSWLRDGLKPRCITRDLKWGTPVPLEGFEDKVFYVWFDATIGYLSITANYTDQWERWWKNPEQVDLYQFMAKDNVPFHSLVFPCSALGAEDNYTLVSHLIATEYLNYEDGKFSKSRGVGVFGDMAQDTGIPADIWRFYLLYIRPEGQDSAFSWTDLLLKNNSELLNNLGNFINRAGMFVSKFFGGYVPEMVLTPDDQRLLAHVTLELQHYHQLLEKVRIRDALRSILTISRHGNQYIQVNEPWKRIKGSEADRQRAGTVTGLAVNIAALLSVMLQPYMPTVSATIQAQLQLPPPACSILLTNFLCTLPAGHQIGTVSPLFQKLENDQIESLRQRFGGGQAKTSPKPAVVETVTTAKPQQIQALMDEVTKQGNIVRELKAQKADKNEVAAEVAKLLDLKKQLAVAEGKPPEAPKGKKKK [MARS]”: the melting temperature turned out to be 49.1 °C in series [1] (cell cycle stage: G1/S) and 49.4 °C in series [1] (cell cycle stage: mitosis). Further, the results for the thermal stability score in series [2] (setting [5]) and in series [2] (cell cycle stage: mitosis) were 1.07 and 4.3, respectively. Moreover, the “solubility change mitosis (log2)” value in series [3] was -0.109. In addition, the “solubility in G1/S (log2)” value in series [4] turned out to be 0.171.

As to “MRLGPRTAALGLLLLCAAAAGAGKAEELHYPLGERRSDYDREALLGVQEDVDEYVKLGHEEQQKRLQAIIKKIDLDSDGFLTESELSSWIQMSFKHYAMQEAKQQFVEYDKNSDDTVTWDEYNIQMYDRVIDFDENTALDDAEEESFRKLHLKDKKRFEKANQDSGPGLSLEEFIAFEHPEEVDYMTEFVIQEALEEHDKNGDGFVSLEEFLGDYRWDPTANEDPEWILVEKDRFVNDYDKDNDGRLDPQELLPWVVPNNQGIAQEEALHLIDEMDLNGDKKLSEEEILENPDLFLTSEATDYGRQLHDDYFYHDEL [RCN2]”, the results for the melting temperature in series [1] (cell cycle stage: G1/S) and in series [1] (cell cycle stage: mitosis) were 54.1 °C and 55.7 °C, respectively. In addition, the thermal stability score in series [2] (setting [5]) turned out to be 4.55; in series [2] (cell cycle stage: mitosis), 0.298. The “solubility change mitosis (log2)” value in series [3] came to 0.0798. In series [4], the “solubility in G1/S (log2)” value was found to be 0.0519.
